# Reference: patent US11666658B2, “Rifamycin analogs and antibody-drug conjugates thereof” (Regeneron Pharmaceuticals, Inc., priority 2018, dated 2023)
# T1: endogenously expressed human MSR1 on PMA-treated THP-1 cells (Homo sapiens, UniProt P21757)
# T1 construct: endogenously expressed human MSR1; endogenous in cells; host or cells: THP-1 cells treated with 200 nM PMA
# T1 sequence (P21757 1-451): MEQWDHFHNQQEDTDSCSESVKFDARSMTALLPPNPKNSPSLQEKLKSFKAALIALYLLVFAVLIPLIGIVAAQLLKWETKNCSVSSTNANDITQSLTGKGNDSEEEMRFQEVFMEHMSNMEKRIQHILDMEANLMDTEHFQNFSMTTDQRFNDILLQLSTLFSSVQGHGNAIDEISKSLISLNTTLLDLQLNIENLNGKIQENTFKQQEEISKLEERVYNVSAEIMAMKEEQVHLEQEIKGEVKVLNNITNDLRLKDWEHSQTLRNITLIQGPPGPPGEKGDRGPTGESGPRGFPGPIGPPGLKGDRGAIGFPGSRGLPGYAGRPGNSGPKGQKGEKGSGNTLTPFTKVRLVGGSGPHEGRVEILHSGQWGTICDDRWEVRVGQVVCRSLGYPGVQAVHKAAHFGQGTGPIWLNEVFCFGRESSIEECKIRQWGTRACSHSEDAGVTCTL
# B1: H1H21234N-N297Q: "An anti-MSR1 antibody H1H21234N containing a N297Q mutation, which eliminates N-linked glycosylation of the Fc at this site" (antibody, V domains shown)
# VH: QVQLQESGPGLVKPSETLSLTCTVTGGSISRNYWSWIRQPPGKGLEWIGYIYYSGSIDYNPSLKSRVTISVDTSKNQFSLKLSSMTAADTAVYYCARDRWNWKYGMDVWGQGTTVIVSS
# VL: EIVLTQSPGTLSLSPGERATLSCRASQTVRNNYLAWYHQKPGQAPRLLIYGASSRATGIPDRFSGSGSGTDFTLTISRLEPEDFTVYYCHQYGNSPWTFGQGTKMEIKR
# Target: T1, endogenously expressed human MSR1 on PMA-treated THP-1 cells
# Experiment: Electrochemiluminescence (ECL) antibody binding assay on cells
# Method: The ability of anti-MSR1 monoclonal antibodies to bind to human or monkey MSR1 expressing cells was determined using electrochemiluminescence (ECL) based detection.
# Two cell lines overexpressing either human or monkey MSR1 were generated. To generate the human MSR1 overexpressing cell line, human embryonic kidney (HEK) 293 cells were engineered by transduction with hygromycin resistant lentiviral vector encoding full length human MSR1 (hMSR1, amino acids M1-L451 of accession number NP_619729.1) with a C-terminal Myc tag. The resulting cell line is referred to as HEK293.Myc.hMSR1. Similarly, to generate the monkey MSR1 overexpressing cell line, HEK293 cells were engineered by transfection with the geneticin resistant expression plasmid encoding full length monkey MSR1 (Macaca fascicularis, mfMSR1, amino acids M1-L451 of accession number XP_005562705.1). The resulting cell line is referred to as HEK293.mfMSR1 cells. To measure the ability of antibodies to bind to endogenously expressed human MSR1, THP-1 human monocytic cells were treated with 200 nM of phorbol 12-myristate 13-acetate (PMA; Sigma, Cat #P8139) for 72 hours to induce high MSR1 expression prior to antibody binding.
# Luminescence intensity, measured in relative light units (RLU), was recorded to indicate the binding intensity of each antibody at the range of concentrations.
molecule,measurement,value
B1,"Ratio of 11 nM Antibody Binding Signal (RLU) to isotype control, PMA-treated THP-1",25
